Where a chain is given by its changes, count along the chain named.
Tests used:
[1] = molecular target: SARS-CoV-2 spike receptor binding domain (RBD), wild type (SARS-CoV-2, UniProt P0DTC2 319-539); assay: ELISA, RBD protein coated, mAb titrated
[2] = molecular target: SARS-CoV-2 receptor binding domain (RBD), wild type (SARS-CoV-2, UniProt P0DTC2 319-539); assay: ELISA, RBD protein coated, mAb titrated

B1: C594 (antibody, V domains shown)
VH: QVQLVESGGGVVQPGRSLRLSCAASGFTFSSYGMHWVRQAPGKGLEWVAVISDDGSNKYYADSVKGRFTISRDNSKNTLYLQMNSLRAEDTAVYYCAKSWWLSENWFDPWGQGTLVTVSS
VL: EIVMTQSPATLSVSPGERATLSCRASQSVSSNLAWYQQKPGQAPRLLIYGASTRATGIPARFSGTGSGTEFTLTISSLQSEDFAVYYCQQYNNWPLTFGGGTKVEIK
With B1 the EC50 [1] was 2.63 ng/mL.

B2: C595 (antibody, V domains shown)
VH: B1 VH with P14A, Y32F, M34L, S56A, E89D, V93K
VL: B1 VL with S30R, T65S, E70D
Work on B2 yielded an EC50 [1] of 2.04 ng/mL.

B3: C570 (antibody, V domains shown)
VH: QVQLQESGPGLVKPSETLSLTCTVSGASISSYYWSWIRQPPGKGLEWIGYIYYSGSTNYNPSLKSRVTISLDTSKNQFSLQLSSVTAADTAVYYCATYYFDNSGYSYGLDVWGQGTTVTVSS
VL: DIQMTQSPSSLSASVGDRVTIACRASQSISSYLHWYQQQPGKAPKLLIYAVTNLQSGVPSRFSGSGSGTDFTLTISSLQPEDFATYYCQQSYSLPQTFGQGTKVEIK
B3 was tested, and the EC50 [1] was 0.74 ng/mL.

B4: C580 (antibody, V domains shown)
VH: EVQLVQSGAEVKKAGESLKISCNSSGYSFTNYWIAWVRQVPGKGLEWMGIIYLGDSDTRYSPSFQGRVTISADKSISAAYLHWSSLKASDTAIYYCARGGPPGGVKLELTDFWGQGTLVTVSS
VL: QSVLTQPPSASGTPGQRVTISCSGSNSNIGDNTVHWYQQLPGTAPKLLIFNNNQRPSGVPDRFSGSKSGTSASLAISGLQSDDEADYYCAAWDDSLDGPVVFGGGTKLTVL
In the case of B4, the EC50 [1] is reported as 1.81 ng/mL.

B5: C567 (antibody, V domains shown)
VH: QVQLQESGPGLVKPSETLSLTCTVSGGSVINGSYYWSWIRQPPGKGLEWIGFVYYSGSTNYNPSLKSRVTISVDTSKNQFSLNLNSVTAADTAVYYCATGSKSSYYFDYWGQGTLVTVSS
VL: QSVLTQPPSVSAAPGQKVTISCSGSSSNIGNNYVSWYQQLPGAAPKLLIYENNMRPSGIPDRFSGSKSGTSATLGITGLQTGDEADYYCGTWDSSLSVPYVFGTGTRVTVL
With B5 the EC50 [1] was 18.9 ng/mL.

B6: C568 (antibody, V domains shown)
VH: QVQLVQSGAEVKKPGASVKVSCTASGYTFSSYYIHWVRQAPGQGLEWMGIINPGAGSTSYAQKFQGRVAMTTDTSTRTVYMELSSLRSDDTAVYYCARDEAFLPSAIFVGDYWGQGTLVTVSS
VL: DIQMTQSPSSLSASVGDRVTITCRASQGIRNDLGWYQQKPGKAPKRLIYAASNLQSGVPSRFSGSGSGTEFTLTISSLQPEDFATYYCLQHSTYPHTWTFGQGTKVEIK
B6 showed an EC50 [1] of 5.99 ng/mL.

B7: C057 (antibody, V domains shown)
VH: QVQLVQSGAEVKRPGASVKLSCKASGYIFTDYSIHWVRQAPGQGLEWMGWVNPNSGGGNSAQKFMDWVTMARDTSITTVYMELSRLRSDDTAVYYCARGPLFHKLVYDSWSGYHDGFDIWGQGTMVTVSS
VL: QSALTQPASVSGSPGQSITISCTGTSSDVGAYKFVSWYQQHPGKAPQLIIYEVSNRPSGVSNRFSGSKSGNTASLTISGLQAEDEADYYCSSYTNASTWVFGGGTELTVL
B7 was tested, and the EC50 [2] was 2.31 ng/mL.

B8: C581 (antibody, V domains shown)
VH: EVQLVQSGAEVKKPGESLKISCKGSGYRFTSYWIAWVRQMPGKGLEWMGIIYPGDSDTRYSPSFQGQVTISADQSISTAYLQWSSLKASDTAMYYCARGGPPGGVKLELTDYWGQGALVTVSS
VL: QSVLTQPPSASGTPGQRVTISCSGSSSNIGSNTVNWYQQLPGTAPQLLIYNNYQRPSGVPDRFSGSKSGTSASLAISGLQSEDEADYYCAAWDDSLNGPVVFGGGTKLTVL
B8 showed an EC50 [1] of 1.58 ng/mL.

B9: C596 (antibody, V domains shown)
VH: QVQLVESGGGVVQPGRSLRLSCAASGITFSHYGMHWVRQAPGKGLEWVALISSDGSKKYYADSVKGRFTISRDNSKSTLYLQMNSLRAEDTAIYYCAKDLGYYYGPPYGPDYWGQGTLVTVSS
VL: DIQMTQSPSSLSASVGDRVTITCQASQDVSNSLNWYQQKPGKAPKLLIYDASNLETGVPSRFSGSGSGTDFSFTISSLQPEDIATYYCLQYDNFSMYTFGQGTKLEIK
Work on B9 yielded an EC50 [1] of 21 ng/mL.

B10: C518 (antibody, V domains shown)
VH: EVQLVESGGGLIQPGGSLRLSCAASGITVSSNYMSWVRQAPGKGLEWVSVMYAGGSSFYADSVKGRFTISRDNSKNTLYLQMNSLRVEDTAVYYCARDLIALGVDVWGQGTTVTVSS
VL: DIQLTQSPSFLSASVGDRVTITCRASQGISSYLAWYQQKPGKAPKLLIYAASTLQSGVPSRFSGSGSGTEFTLTISSLQPEDFATYYCQLLNSYPMCSFGQGTKLEIK
With B10 the EC50 [2] was 1.13 ng/mL.

B11: C591 (antibody, V domains shown)
VH: QVQLVQSGAEVKKPGASVKVSCKASGYILTDYFIHWVRQAPGQGLEWMGWINPNSGGTNYAQKFQGRVTMTRDTSISTAYMELSRLRSDDTAVYHCARYKGTTVNTNYYYGMDVWGQGTTVTVSS
VL: not shown
For B11, the EC50 [1] was 3.83 ng/mL.

B12: C592 (antibody, V domains shown)
VH: B11 VH with I28T, L29F, I34N, Y60S, S77T, A79V, H95Y
VL: SYELTQPPSVSVSPGQTASITCSGDKLRNKYACWYQQKAGQSPMLVIYQDTKRPSGIPERFSGSNSGNTATLTISGTQAMDEADYYCQAWDISTVVFGGGTKLTVL
With B12 the EC50 [1] was 6 ng/mL.

B13: C060 (antibody, V domains shown)
VH: EVQLVESGGGLVQPGGSQRLSCAASGFTVSSNYMSWIRQAPGKGLEWVSVIYSGGSAYYVDSVKGRFTISRDNSKNTLYLQMNSLRPEDTAVYYCARIANYMDVWGKGTTVTVSS
VL: EIVMTQSPATLSVSPGERATLSCRASQSVSSHLAWYQQKPGQAPRLLIYGASTRATGIPTRFSGSGSGTEFTLTISSLQSEDFAVYYCQQYNNWPPLTFGGGTKVEIK
Binder B13 has an EC50 [2] of 43.5 ng/mL.

B14: C062 (antibody, V domains shown)
VH: EVQLVESGGGLVKPGGSLRLTCAASGFTFSTYSMNWVRQAPGKGLEWVSSISSSSSYIYYADSVKGRFTISRDNAKNSLYLQMNSLRAEDTAVYYCARERGYYGGKTPPFLGGQGTLVTVSS
VL: NFMLTQPHSVSESPGKTVTISCTGSSGSIASNYVQWYQQRPGSAPTTVIYEDNQRPSGVPDRFSGSIDSSSNSASLTISGLKTEDEADYYCQSYDSSNYWVFGGGTKLTVL
B14 gave an EC50 [2] of 4.69 ng/mL.

B15: C059 (antibody, V domains shown)
VH: QVQLVQSGAEVKKPGASIKVSCKASGYTFTDYSMHWVRQAPGQGLEWMGWINPNSGGTKYAQKFQGWVTMTRDMSITTVYMELTRLRSDATAVFYCARGPLFHKLVYDSWTGYHDGFDIWGQGTMVTVSS
VL: QSALTQPASVSGSPGQSITISCTGTSSDVGGYNYVSWYQHYPGKAPKLMIYEVTHRPSGVSNRFSGSKSGNTASLTISGLQAEDEADYYCSSSTNSSTWVFGGGTKMTVL
Binder B15 has an EC50 [2] of 1.88 ng/mL.

B16: C089 (antibody, V domains shown)
VH: QVQLVESGGGVVQPGRSLRLSCAASGFTFRTYAMHWVRQAPGKGLEWVAVILSDGNNKYYADSVKGRFTISRDNSKNTLYLQMNSLRAEDTAIFYCAREQEANYYDISGYYHWGESLGYWGQGTLVTVSS
VL: DIQLTQSPSFLSASVGDRVTITCRASQGISSYLAWYQQKPGKAPKLLIYGASTLQSGVPSRFSGSGSGTEFTLTISSLQPEDFASYYCQKVNSHPPGLTFGGGTKVEIK
In the case of B16, the EC50 [2] is reported as 4.69 ng/mL.

B17: C090 (antibody, V domains shown)
VH: B16 VH
VL: B16 VL with L46F, H94Y
In the case of B17, the EC50 [2] is reported as 6.22 ng/mL.

B18: C565 (antibody, V domains shown)
VH: EVQLVESGGGLIQPGGSLRLSCAASGLIVSSNYMNWVRQAPGKGLEWVSLLYSGGSTYYADSVKGRFTISRDNSKNTLYLQMNSLRPEDTAVYYCARDLSVVGAFDIWGQGTMVTVSS
VL: EIVLTQSPGTLSLSPGERATLSCRASQSLPSTYLAWYQQKRGQAPRLLIYGASSRATGIPDRFSGSGSGTDFTLTISRLEPEDFAVYYCQQYGTSPRVTFGPGTKVDIK
For B18, the EC50 [1] was 1.27 ng/mL.

B19: C593 (antibody, V domains shown)
VH: QVQLVQSGAEVKKPGASVKVSCKASGYTFTSYDINWVRQAPGQGLEWMGWMNPNSGNTDYAQKFQGRFTMTRNTSISTAYMELSSLRSEDTAVYYCASRRWDPLTFYYYMVVWGKGTTVTVSS
VL: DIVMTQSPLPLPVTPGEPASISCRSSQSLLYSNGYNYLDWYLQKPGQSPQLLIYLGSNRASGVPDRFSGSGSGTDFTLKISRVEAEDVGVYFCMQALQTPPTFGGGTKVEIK
In the case of B19, the EC50 [1] is reported as 4.36 ng/mL.

B20: C578 (antibody, V domains shown)
VH: QVQLVESGGGVVQPGRSLRLSCAASGFTFSSSGMHWVRQAPGKGLEWVAIISYDGSNKYYADSVKGRFTISRDNSKNTLSLQMNSLRAEDTAVYYCAKDPLPFRDFFYYYMDVWGKGTTVTVSS
VL: QSALTQPASVSGSPGQSITISCTGTSSDVGGYNYVSWYQQHPGKAPKLMIYDVSNRPSGVSNRFSGSKSGNTASLTISGLQAEDEADYYCSSYTSSSTLGVFGTGTKVTVL
B20 showed an EC50 [1] of 1.08 ng/mL.

B21: C085 (antibody, V domains shown)
VH: QVQLQESGPGLVKPSETLSLTCTVSGDSMSSYFWTWIRQPPGKGLECIGYFYPSGSTNYNPSLKSRVTISIDTSKNQFSLKLSSVTAADTAVYYCARLKQQLVGFGWFDPWGQGTLVTVSS
VL: QSVLTQPPSVSGAPGQRVTISCTGSSSNIGADYDVHWYQQFPGTAPKVLIYANTNRPSGVPERFSGSKSGTSASLAITGLQAEDEADYYCQSYDHSLNWVFGGGTKLTVL
For B21, the EC50 [2] was 2.38 ng/mL.

B22: C086 (antibody, V domains shown)
VH: B21 VH with M29I, S31T, T35A, K43R, Y50S, Y52F, N58Y, I71V, S83N, T115S
VL: B21 VL with S26I, D34E, Q39V, G66A, S96R, N98H
B22 was tested, and the EC50 [2] was 3.01 ng/mL.

B23: C519 (antibody, V domains shown)
VH: QVQLQESGPGLVKPSETLSLTCAVSGGSISSYYWSWIRQPPGKGLEWIGYIDTSGSTNYNPSLKSRVTMSVDTSKNQFSLNVNSVTAADTAVYFCGVCAGDCYAASVFDYRGQGTLVTVSS
VL: DIQMTQSPSSLSASVGDRVTITCQASQDIIFYLNWYQQKPGKAPKLLIYDASNLKTGVPSRFSGSGSGTDFAFTISSLQPEDIATYYCQQYDNLPLTFGGGTKVEIK
B23 showed an EC50 [2] of 1.06 ng/mL.

B24: C569 (antibody, V domains shown)
VH: QVQLVESGGNVVQPGRSLRLSCAASGFTFSNYGMHWIRQAPGKGLEWVAVISYDGSDKYYADSVKGRVTISRDNSKNTLYLQMNSLRAEDTAVYYCAKGGPYGDHVRSDYWGLGTLVTVSS
VL: B23 VL with I30S, F31N, A43V, K55E, A72T, Y91F, D92H, G100Q, V104L
With B24 the EC50 [1] was 11.1 ng/mL.

B25: C566 (antibody, V domains shown)
VH: QVQLQESGPGLVKSSQTLSLNCSVFGASISSGGYYWTWIRQHPGKGLEWIGYIHYRGTYYNPSLKSRVTMSVDTSKNQFSLKVRSVSAADTAIYYCARAIVVVTLNWFDLWGQGTLVTVSS
VL: NFMLTQPHSVSESPGKTVTISCSGSGGSIASNYVQWYQQRPGSAPTAVIYEDNQRPSGVPDRFSGSIDSSSNSASLTISGLKTEDEADYYCQSYDTSNPVIFGGGTKLTV
With B25 the EC50 [1] was 5.88 ng/mL.

Reference: US20220195015A1 (published 2022)
